Consider 33 molecules from patent publication US20260274955A1 (JANUX THERAPEUTICS, published 2026).

The target of one experiment is Anti-CD28 Fab (SEQ ID NOs: 202, 203). Put plainly: phage binding ELISA on captured Fab.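 Note: clonal phage supernatants added briefly to wells pre-incubated with CD28 antigen or with blocking buffer only, then washed, bound phage read by ELISA using HRP-coupled anti-M13 antibody.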 Background: An ELISA detects its analyte on a solid surface through an enzyme-linked reagent.
Sequence of Anti-CD28 Fab (SEQ ID NOs: 202, 203) (VH, as listed by the source, chain 1 of 2): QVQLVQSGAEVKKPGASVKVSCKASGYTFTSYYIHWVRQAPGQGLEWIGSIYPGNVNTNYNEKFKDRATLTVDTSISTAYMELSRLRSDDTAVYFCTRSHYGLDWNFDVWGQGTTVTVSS
Sequence of Anti-CD28 Fab (SEQ ID NOs: 202, 203) (VL, as listed by the source, chain 2 of 2): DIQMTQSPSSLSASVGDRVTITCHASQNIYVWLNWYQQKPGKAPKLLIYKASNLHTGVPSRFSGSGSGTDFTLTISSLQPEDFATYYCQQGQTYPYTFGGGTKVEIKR
Method: (§1) Clonal phage were harvested as crude supernatants and screened via standard ELISAs. […] Prior to the addition of clonal phage, wells were incubated with blocking buffer and CD28 antigen or blocking buffer alone. Without washing or aspirating, clonal phage supernatants were then added to the wells and incubated for a short time. Wells were then washed followed by detection of bound phage using a horse radish conjugated anti-M13 antibody.
On to YCAGHAAEYMWKCL [Phage-776], for which the “Anti-CD28 Fab (SEQ ID NOs: 202, 203) signal” value was 0.97.

As to YCDGHSKEYMSKCL [Phage-779], the “Anti-CD28 Fab (SEQ ID NOs: 202, 203) signal” value was 0.96.

Turning to YCDGHSGEYMSKCL [Phage-819], the “Anti-CD28 Fab (SEQ ID NOs: 202, 203) signal” value turned out to be 0.82.

Regarding YCDGHIKEYMSKCL [Phage-799], the “Anti-CD28 Fab (SEQ ID NOs: 202, 203) signal” value came out at 0.91.

As for YCAGHASEYLQKCL [Phage-881], the “Anti-CD28 Fab (SEQ ID NOs: 202, 203) signal” value came out at 0.43.

Consider YCAGHSLQYLGKCY [Phage-813], for which the “Anti-CD28 Fab (SEQ ID NOs: 202, 203) signal” value came to 0.86.

In the case of YCEGHVPEYLVKCL [Phage-778], the “Anti-CD28 Fab (SEQ ID NOs: 202, 203) signal” value turned out to be 0.96.

For YCEGHSVEYILKCL [Phage-757], the “Anti-CD28 Fab (SEQ ID NOs: 202, 203) signal” value was determined as 1.04.

In the case of YCAGHLDVYMSKCL [Phage-781], the “Anti-CD28 Fab (SEQ ID NOs: 202, 203) signal” value was found to be 0.96.

Take YCEGHTQAYLAKCL [Phage-792]: the “Anti-CD28 Fab (SEQ ID NOs: 202, 203) signal” value came to 0.93.

With YCAGHSAQYMWKCL [Phage-793], the “Anti-CD28 Fab (SEQ ID NOs: 202, 203) signal” value came out at 0.92.

On to YCFGHFPEYMAKCL [Phage-773], for which the “Anti-CD28 Fab (SEQ ID NOs: 202, 203) signal” value was 0.98.

With YCDGHLPEYMLKCL [Phage-780], the “Anti-CD28 Fab (SEQ ID NOs: 202, 203) signal” value is 0.96.

With YCDGHLPEYMEKCL [Phage-880], the “Anti-CD28 Fab (SEQ ID NOs: 202, 203) signal” value worked out at 0.43.

As to YCDGHSAEYLGKCL [Phage-795], the “Anti-CD28 Fab (SEQ ID NOs: 202, 203) signal” value is 0.92.

Turning to YCEGHSAIYIAKCM [Phage-772], the “Anti-CD28 Fab (SEQ ID NOs: 202, 203) signal” value came to 0.98.

For the molecule YCVGHSPEYIWKCL [Phage-796], the “Anti-CD28 Fab (SEQ ID NOs: 202, 203) signal” value was 0.92.

For YCEGHAHEYMEKCV [Phage-790], the “Anti-CD28 Fab (SEQ ID NOs: 202, 203) signal” value came to 0.93.

With YCEGHDIRYMMKCL [Phage-785], the “Anti-CD28 Fab (SEQ ID NOs: 202, 203) signal” value came to 0.95.

Consider YCDGHIPQYVEKCL [Phage-788], for which the “Anti-CD28 Fab (SEQ ID NOs: 202, 203) signal” value is 0.94.

As to YCDGHSFEYMAKCL [Phage-794], the “Anti-CD28 Fab (SEQ ID NOs: 202, 203) signal” value turned out to be 0.92.

On to YCDGHSMEYMAKCL [Phage-821], for which the “Anti-CD28 Fab (SEQ ID NOs: 202, 203) signal” value came out at 0.8.

Turning to YCAGHAEIYMQKCL [Phage-789], the “Anti-CD28 Fab (SEQ ID NOs: 202, 203) signal” value was 0.93.

Take YCDGHHAEYMWKCL [Phage-791]: the “Anti-CD28 Fab (SEQ ID NOs: 202, 203) signal” value amounted to 0.93.

For YCAGHLEMYMSKCL [Phage-798], the “Anti-CD28 Fab (SEQ ID NOs: 202, 203) signal” value was 0.91.

Take YCAGHTPEYLDKCL [Phage-784]: the “Anti-CD28 Fab (SEQ ID NOs: 202, 203) signal” value stood at 0.95.

Regarding YCDGHEERYMAKCL [Phage-786], the “Anti-CD28 Fab (SEQ ID NOs: 202, 203) signal” value turned out to be 0.94.

Turning to YCEGHSSAYMRKCL [Phage-758], the “Anti-CD28 Fab (SEQ ID NOs: 202, 203) signal” value stood at 1.04.

Turning to YCQGHFPQYMAKCL [Phage-777], the “Anti-CD28 Fab (SEQ ID NOs: 202, 203) signal” value was found to be 0.97.

With YCSGHVPEYMEKCL [Phage-787], the “Anti-CD28 Fab (SEQ ID NOs: 202, 203) signal” value was determined as 0.94.

For YCDGHTGMYISKCL [Phage-774], the “Anti-CD28 Fab (SEQ ID NOs: 202, 203) signal” value turned out to be 0.98.

As for YCDGHELMYMEKCL [Phage-797], the “Anti-CD28 Fab (SEQ ID NOs: 202, 203) signal” value was 0.92.

With YCSGHSWAYIGKCL [Phage-775], the “Anti-CD28 Fab (SEQ ID NOs: 202, 203) signal” value worked out at 0.98.

For a further experiment the target is unchanged. The experiment is described as follows: phage binding ELISA on captured Fab, competitor CD28 antigen.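 Note: clonal phage supernatant binding in wells preincubated with CD28 antigen in blocking buffer, detected by HRP-conjugated anti-M13 antibody ELISA, compared with blocking buffer alone.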
Method: as §1
Consider YCAGHAAEYMWKCL [Phage-776], for which the “Anti-CD28 Fab signal in the presence of CD28” value (“Anti-CD28 Fab signal” below) worked out at 0.06.

Consider YCDGHSKEYMSKCL [Phage-779], for which the “Anti-CD28 Fab signal” value was 0.07.

Take YCDGHSGEYMSKCL [Phage-819]: the “Anti-CD28 Fab signal” value came to 0.06.

Turning to YCDGHIKEYMSKCL [Phage-799], the “Anti-CD28 Fab signal” value is 0.08.

For YCAGHASEYLQKCL [Phage-881], the “Anti-CD28 Fab signal” value stood at 0.06.

As for YCAGHSLQYLGKCY [Phage-813], the “Anti-CD28 Fab signal” value was determined as 0.06.

YCEGHVPEYLVKCL [Phage-778]: the “Anti-CD28 Fab signal” value turned out to be 0.06.

As for YCEGHSVEYILKCL [Phage-757], the “Anti-CD28 Fab signal” value worked out at 0.06.

On to YCAGHLDVYMSKCL [Phage-781], for which the “Anti-CD28 Fab signal” value was 0.09.

In the case of YCEGHTQAYLAKCL [Phage-792], the “Anti-CD28 Fab signal” value was found to be 0.1.

For YCAGHSAQYMWKCL [Phage-793], the “Anti-CD28 Fab signal” value is 0.07.

Regarding YCFGHFPEYMAKCL [Phage-773], the “Anti-CD28 Fab signal” value was found to be 0.07.

Consider YCDGHLPEYMLKCL [Phage-780], for which the “Anti-CD28 Fab signal” value turned out to be 0.09.

As for YCDGHLPEYMEKCL [Phage-880], the “Anti-CD28 Fab signal” value was determined as 0.07.

For the molecule YCDGHSAEYLGKCL [Phage-795], the “Anti-CD28 Fab signal” value stood at 0.07.

Regarding YCEGHSAIYIAKCM [Phage-772], the “Anti-CD28 Fab signal” value came out at 0.11.

As to YCVGHSPEYIWKCL [Phage-796], the “Anti-CD28 Fab signal” value came out at 0.06.

Take YCEGHAHEYMEKCV [Phage-790]: the “Anti-CD28 Fab signal” value was found to be 0.07.

YCEGHDIRYMMKCL [Phage-785]: the “Anti-CD28 Fab signal” value turned out to be 0.08.

YCDGHIPQYVEKCL [Phage-788]: the “Anti-CD28 Fab signal” value was determined as 0.08.

With YCDGHSFEYMAKCL [Phage-794], the “Anti-CD28 Fab signal” value turned out to be 0.06.

YCDGHSMEYMAKCL [Phage-821]: the “Anti-CD28 Fab signal” value was 0.07.

With YCAGHAEIYMQKCL [Phage-789], the “Anti-CD28 Fab signal” value came out at 0.05.

Regarding YCDGHHAEYMWKCL [Phage-791], the “Anti-CD28 Fab signal” value amounted to 0.06.

As to YCAGHLEMYMSKCL [Phage-798], the “Anti-CD28 Fab signal” value is 0.07.

As to YCAGHTPEYLDKCL [Phage-784], the “Anti-CD28 Fab signal” value was 0.06.

As for YCDGHEERYMAKCL [Phage-786], the “Anti-CD28 Fab signal” value came out at 0.06.

Consider YCEGHSSAYMRKCL [Phage-758], for which the “Anti-CD28 Fab signal” value came to 0.06.

Consider YCQGHFPQYMAKCL [Phage-777], for which the “Anti-CD28 Fab signal” value was found to be 0.07.

For YCSGHVPEYMEKCL [Phage-787], the “Anti-CD28 Fab signal” value is 0.06.

As to YCDGHTGMYISKCL [Phage-774], the “Anti-CD28 Fab signal” value was 0.06.

Regarding YCDGHELMYMEKCL [Phage-797], the “Anti-CD28 Fab signal” value was determined as 0.06.

For the molecule YCSGHSWAYIGKCL [Phage-775], the “Anti-CD28 Fab signal” value stood at 0.07.
